Measurements from the nanobody polyreactivity screen of Harvey et al. (2022).

Assay: yeast display, Sf9 membrane polyspecificity reagent, FACS + sequencing; frameworks hold sequencing errors
How it was run: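 Using colony PCR, genes from sorted yeast display clones were amplified, then sequenced on MiSeq at 2 × 250 and filtered by CDR length. The clones had been stained with 10% biotinylated, detergent-solubilized Sf9 membrane reagent for 1 hour at 4 °C and sorted by FACS into low and high (top ~1%) gates on anti-HA and streptavidin fluorescence. Polyreactivity labels come from the gate of origin.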

Row | Sequence | polyreactivity (PSR sort gate)
1 | QVQLVESGGGLVQAGGSLRLSCAASGRIIVPYGMGWYRQAPGKERELVAAITTGGSTNYADSVKGRFTISRDNAKNTVYLQMNSLKPEDTAVYYCAVDWYPQLIYSFNSELEYWGQGTQVTVSS | low polyreactivity
2 | QVQLVESGGGLVQAGGSLRLSCAASGRIIWGYAMGWYRQAPGKERELVAGITYSGGSTYYADSVKGRFTISRDNAKNTVYLQMNSLKPEDTAVYYCAAAKSYRSGSWYEYWGQGTQVTVSS | high polyreactivity
3 | QVQLVESGGGLVQAGGSLRLSCAASGRIIWINAMGWDRQAPGKERELVATITKRGGRTYYADSVKGRFTISRDNAKNTVYLQMNSLKPEDTAVYSCNTGHEARHSQYQGGVYQDMGYWGQGTQVTVSS | low polyreactivity
4 | QVQLVESGGGLVQAGGSLRLSCAASGRIIWPYAIGWYRQAPGKERELFATITSGGRTNYADSVKGRFTISRDNAKNTVYLQMNSLKPEDTAVYYCIADHWLYYGAGYDYWGQGTQVTVSS | low polyreactivity
5 | QVQLVESGGGLVQAGGSLRLSCAASGRIIYAYAMGWYRQAPGKERELVAAITIGGNTNYADSVKGRFTISRDNAKNTVYLQMNSLKPEDTAVYYCNARNYYYPWRGYHVVGSNDLGYWGQGTQVTVSS | low polyreactivity
6 | QVQLVESGGGLVQAGGSLRLSCAASGRIIYGNTMGWYRQAPGKEREFVATITRSGGSTYYADSVKGRFTISRDNAKNTVYLQMNSLKPEDTAVYYCNAQPSVYYGRWGLNYVYWGQGTQVTVSS | high polyreactivity
7 | QVQLVESGGGLVQAGGSLRLSCAASGRIIYSNGMGWYRQAPGKERELVAAISSGGSTYNADSVKGRFTISRDNAKNTVYLQMNSLKPEDTAVYYCAADIDYERDRYDYWGQGSQVTVSS | low polyreactivity
8 | QVQLVESGGGLVQAGGSLRLSCAASGRIIYTYEMGWYRQAPGKERELVAAISGSGGSTYYADSVKGRFTISRDNSKTTLYLQMNRLKPEDTGVYYCNGAYYGYENLYKRGYWGQGSQVTVSS | high polyreactivity
9 | QVQLVESGGGLVQAGGSLRLSCAASGRILAGYAMGWYRQAPGKERELVAAITRGGTTYYADSVKGRFTISRDNAKNSVYLQMNSLKPEDTAVVYTVSSAQYDYCGQGTQVTVSS | low polyreactivity
10 | QVQLVESGGGLVQAGGSLRLSCAASGRILAGYAMGWYRQAPGKERELVAVISVGTGSTYYADSVKGRFTISRDNAKNTVYLQMNSLKPEDTAVYYCAADPGPYKELEYGYWGQGTQVTVSS | low polyreactivity
11 | QVQLVESGGGLVQAGGSLRLSCAASGRILAIYAKGWYRQAPGKERELVAGITYSAGSTYYADSVKGRFTISRDNAKNTVYLQMNSLKPEDTAVYYCAALEYNSHRYGYDYWGQGTQVTVSS | low polyreactivity
12 | QVQLVESGGGLVQAGGSLRLSCAASGRILASYAMGWYRQAPGKERELVAAIRYRGSTSYADSVKGRFTISRDNAKNTVYLQMNSLKPEDTAVYYCAAKWHVRGRGARYRYDYDYWGQGTQVTVSS | low polyreactivity
13 | QVQLVESGGGLVQAGGSLRLSCAASGRILASYAMGWYRQAPGKERELVAAISRSGGSTYYADSVKGRFTISRDNAKNTVYLQMNSLKPEDTAVYYCAAKYPQKTPVNSYGILDSWGQGTQVTVSS | high polyreactivity
14 | QVQLVESGGGLVQAGGSLRLSCAASGRILAYYAMAWYRQAPGKERELVAAITSGGGSTYYADSVKGRFTISRDNAKNTVYLQMNSLKPEDTAVYYCAADAYVSSQPMDYWGQGSQVTVSS | high polyreactivity
15 | QVQLVESGGGLVQAGGSLRLSCAASGRILAYYAMGWYRQAPGKERELVARISGSGTSTYYADSVKGRFTISRDNAKNTVYLQMNSLKPEDTGVYYCAATYYRGGRSNGPAWWHEYWGQGTQVTVSS | high polyreactivity
16 | QVQLVESGGGLVQAGGSLRLSCAASGRILAYYVMGWYRQAPGKERELVAGINWSGGSTYYADSVKGRFTISRDNAKHTFYLQMNSLKPEDTGVYNCAARFVGVRDGYYYWGQGTQVTVSS | high polyreactivity

Row | Sequence | polyreactivity (PSR sort gate)
17 | QVQLVESGGGLVQAGGSLRLSCAASGRILDAYTMGWYRQAPGKERQLVAAISASGVSTYYADSVKGRFTISRDNAKNTVYLQMNSLKPEDTAVYYCAKDYYQQTGFLEYDYWGHGTQVTVSS | low polyreactivity
18 | QVQLVESGGGLVQAGGSLRLSCAASGRILDGYAMGWYRQAPGKERELVAAISSRGGRTYYADSVKGRFTISRDNAKNTVYLQMNSLKPEDTAVYYCAADFSKSRRPIRFYYWGQGTQVTVSS | high polyreactivity
19 | QVQLVESGGGLVQAGGSLRLSCAASGRILEGYAMGWYRQAPGKERELVAAISFSTTTTYYADSVKGRFTISRDNAKNTVYLQMNSLKPEDTAVYYCAADSQQSDYDYWGQGTQVTVSS | high polyreactivity
20 | QVQLVESGGGLVQAGGSLRLSCAASGRILFWYAMGWYRQAPGKERELVAAISSSGGSTYYADSVKGRFTISRDNAKNTFYLLMNSLKPEDTAVYYCAADGVVDYGYWFVVEYEYWGQGTQVTVSS | high polyreactivity
21 | QVQLVESGGGLVQAGGSLRLSCAASGRILGFYAMGWYRQAPGKERELVDSINWSGTRTYYADSVKARFTISRDNAKNTVYLQLNSLKPEDTAVYYCAAERYPYGVTYSKLDYWGQGTQVTVSS | high polyreactivity
22 | QVQLVESGGGLVQAGGSLRLSCAASGRILGPNAMGWYRQAPGKERELVAAINSGGSTNYADSVKGRFTISRDNAKNTVYLQMNSLKPEDTAVSYCAPDKARVAGYGVEYDYWGQGTQVTVSS | low polyreactivity
23 | QVQLVESGGGLVQAGGSLRLSCAASGRILGRNAMGWYRQAPGKEREFVAGISYSGTSTYYADSVKGRFTISRDNAKNTVYLQMNSLKPEDTAVYYCAVYTGRQPRVSGKYYYWGQGTQVTVSS | high polyreactivity
24 | QVQLVESGGGLVQAGGSLRLSCAASGRILGRNAMGWYRQAPGKERELVAAISSGGNTYYADSVKGRFTISRDNAKNTVYLQMNSLKPEDTAVYYCNTGTYKDWGQGTQVTVSS | low polyreactivity
25 | QVQLVESGGGLVQAGGSLRLSCAASGRILGRYAMGWYRQEPGKERELVASIRGGGSTNYADSVKGRFTISRDNAKNTVYLQMNSLKPEDTAVYYCAKDYDVRVYEYNYWGQGTQVTVSS | low polyreactivity
26 | QVQLVESGGGLVQAGGSLRLSCAASGRILGYYSMGWYRQAPGKERELVAGITSGGSTYYADSVKGRFTISRDNAKNTVYLQMNSLKPEDTAVYYCATVHGVYQRRYYFWGQGTQVTVSS | high polyreactivity
27 | QVQLVESGGGLVQAGGSLRLSCAASGRILIRKAMGWYRQAPGKERELVAAINRGGGSTYYADSVKGRITISRDNAKNTVYLQMISLNPDDTAVYYCAADRKAGYSRVDGDYWGQGTQVTVSS | low polyreactivity
28 | QVQLVESGGGLVQAGGSLRLSCAASGRILKWYAMGGYRQAPGKVRELVAAISARGGSTFYADSVKGRFTSSRDNAKNTVYLPMNSLKPEDTAVYYCAKRWPYTMYYWGQGTQVTVSS | high polyreactivity
29 | QVQLVESGGGLVQAGGSLRLSCAASGRILKYNAMGWYRQAPGKERELVAAISYRGGSTYYADSVKGRFTISRDNAKNTVYLQMNSLKPEDTAVYYCNAGGGILNGPLFDYWGQGTQVTVSS | low polyreactivity
30 | QVQLVESGGGLVQAGGSLRLSCAASGRILLRYAMGWYRQAPGQERELVAAISQRGGRTYYADSVKGRFTISRDNAKNTVNLQMNSLKPEDTAVYYCAAASQQRSPRYGYWGQGTQVTVSS | high polyreactivity
31 | QVQLVESGGGLVQAGGSLRLSCAASGRILLYKAMGWYRQAPGKERELVAAISRSGGSTYYADSVKGRFTISRDNAKNTVYLQMNSLKPEDTAVYYCAAQHGYPRYYFWGQGTQVTVSS | high polyreactivity
